US20230114801A1 (SYSTIMMUNE, published 2023)

T1: CD19 (UniProt P15391 20-291, limits assumed)
T1 sequence (looked up): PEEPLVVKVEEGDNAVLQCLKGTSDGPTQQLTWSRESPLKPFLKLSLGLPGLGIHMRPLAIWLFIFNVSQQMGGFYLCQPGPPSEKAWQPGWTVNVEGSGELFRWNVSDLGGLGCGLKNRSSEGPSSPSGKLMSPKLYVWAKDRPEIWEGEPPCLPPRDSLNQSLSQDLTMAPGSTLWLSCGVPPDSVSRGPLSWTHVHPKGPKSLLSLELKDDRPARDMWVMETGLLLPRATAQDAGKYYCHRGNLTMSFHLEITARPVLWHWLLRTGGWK

B1: SI-68P18 (other)
chain 1: DVQMTQSPSTLSATVGQRVTINCQASESISSWLAWYQQKPGQPPKLLIYEASKLASGVPSRFSGSGSGTEFTLTISSLQSDDFATYYCQGYFYFISRTYVNSFGGGTRVEIKGGGGSGGGGSGGGGSGGGGSQQLLESGGRLIKPGATLRLTCKTSGFTISTNAMSWVRQPPGKGLEWIGVITGRDITYYASWAKGRFTISKTSINTVFLQMRSLRAEDTAVYYCARDGGSSAITSNNIWGRGTLVTVSSGGGGSGGGGSQVQLQQSGPGLVKPSETLSITCTVSGFSLTNYGVHWIRQAPGKGLEWLGVIWSGGNTDYNTPFTSRFTITKDNSKNQVYFKLRSVRADDTAIYYCARALTYYDYEFAYWGQGTLVTVSSASTKGPSVFPLAPSSKSTSGGTAALGCLVKDYFPEPVTVSWNSGALTSGVHTFPAVLQSSGLYSLSSVVTVPSSSLGTQTYICNVNHKPSNTKVDKRVEPKSCDKTHTCPPCPAPEAAGGPSVFLFPPKPKDTLMISRTPEVTCVVVDVSHEDPEVKFNWYVDGVEVHNAKTKPREEQYNSTYRVVSVLTVLHQDWLNGKEYKCAVSNKALPAPIEKTISKAKGQPREPQVYTLPPSRDELTKNQVSLSCAVKGFYPSDIAVEWESNGQPENNYKTTPPVLDSDGSFFLVSKLTVDKSRWQQGNVFSCSVMHEALHNHYTQKSLSLSPGGGGGSGGGGSDVVMTQSPSSVSASVGDRVTITCQASQNIRTYLSWYQQKPGKAPKLLIYAAANLASGVPSRFSGSGSGTDFTLTISDLEPGDAATYYCQSTYLGTDYVGGAFGGGTKLTVLGGGGSGGGGSGGGGSGGGGSEVQLVESGGGLVQPGGSLRLSCTASGFTISSYHMQWVRQAPGKGLEYIGTISSGGNVYYASSARGRFTISRPSSKNTVDLQMNSLRAEDTAVYYCARDSGYSDPMWGQGTLVTVSS
chain 2: ENVLTQSPASLSASPGERVTITCSASSSVSYMHWYQQKPGQAPKLWIYDTSKLASGVPSRFSGSGSGNDHTLTISSMEPEDFATYYCFQGSVYPFTFGQGTKVTVLGGGGSGGGGSGGGGSGGGGSQVTLKESGPGLVQPGQTLSLTCAFSGFSLSTSGMGVGWIRQPPGKGLEWLAHIWWDDDKRYNPALKSRLTISKDTSKNQVYLQMNSLDAEDTAVYYCARMELWSYYFDYWGQGTLVTVSSGGGGSGGGGSEIVLTQSPSTLSVSPGERATFSCRASQSIGTNIHWYQQKPGKPPRLLIKYASESISGIPDRFSGSGSGTEFTLTISSVQSEDFAVYYCQQNNNWPTTFGPGTKLTVLRTVAAPSVFIFPPSDEQLKSGTASVVCLLNNFYPREAKVQWKVDNALQSGNSQESVTEQDSKDSTYSLSSTLTLSKADYEKHKVYACEVTHQGLSSPVTKSFNRGECGGDKTHTCPPCPAPEAAGGPSVFLFPPKPKDTLMISRTPEVTCVVVDVSHEDPEVKFNWYVDGVEVHNAKTKPREEQYNSTYRVVSVLTVLHQDWLNGKEYKCAVSNKALPAPIEKTISKAKGQPREPQVYTLPPSRDELTKNQVSLWCLVKGFYPSDIAVEWESNGQPENNYKTTPPVLDSDGSFFLYSKLTVDKSRWQQGNVFSCSVMHEALHNRFTQKSLSLSPGGGGGSGGGGSDIQMTQSPSTLSASVGDRVTITCQASQSISSHLNWYQQKPGKAPKLLIYKASTLASGVPSRFSGSGSGTEFTLTISSLQPDDFATYYCQQGYSWGNVDNVFGGGTKVTVLGGGGSGGGGSGGGGSGGGGSEVQLLESGGGLVQPGGSLSLSCAASGFSFSSGYDMCWVRQAPGKGLEWIACIAAGSAGITYDANWAKGRFTISRDNSKNTLYLQMNSLRAEDTAVYYCARSAFSFDYAMDLWGQGTLVTVSS
notes: penta-miniGNC; D1 αCD3*** (humanized framework 2), D2 αCD19, D3 αEGFR (Fab), D4 α4-1BB, D5 αPD-L1
B2: SI-68P19 (other)
chain 1: DVVMTQSPSSLSASVGDRVTISCQASESISSWLAWYQQKPGQAPKLLIYEASKLASGVPSRFSGSGSGTEFTLTISSLEPEDFATYYCQGYFYFISRTYVNSFGGGTKVEIKGGGGSGGGGSGGGGSGGGGSQQLVESGGGLVKPGGSLRLSCAASGFTISTNAMSWVRQAPGKGLEWVGVITGRDITYYASWAKGRFTISKTSKNTVYLQMNSLRAEDTAVYYCARDGGSSAITSNNIWGQGTLVTVSSGGGGSGGGGSQVQLQQSGPGLVKPSETLSITCTVSGFSLTNYGVHWIRQAPGKGLEWLGVIWSGGNTDYNTPFTSRFTITKDNSKNQVYFKLRSVRADDTAIYYCARALTYYDYEFAYWGQGTLVTVSSASTKGPSVFPLAPSSKSTSGGTAALGCLVKDYFPEPVTVSWNSGALTSGVHTFPAVLQSSGLYSLSSVVTVPSSSLGTQTYICNVNHKPSNTKVDKRVEPKSCDKTHTCPPCPAPEAAGGPSVFLFPPKPKDTLMISRTPEVTCVVVDVSHEDPEVKFNWYVDGVEVHNAKTKPREEQYNSTYRVVSVLTVLHQDWLNGKEYKCAVSNKALPAPIEKTISKAKGQPREPQVYTLPPSRDELTKNQVSLSCAVKGFYPSDIAVEWESNGQPENNYKTTPPVLDSDGSFFLVSKLTVDKSRWQQGNVFSCSVMHEALHNHYTQKSLSLSPGGGGGSGGGGSDVVMTQSPSSVSASVGDRVTITCQASQNIRTYLSWYQQKPGKAPKLLIYAAANLASGVPSRFSGSGSGTDFTLTISDLEPGDAATYYCQSTYLGTDYVGGAFGGGTKLTVLGGGGSGGGGSGGGGSGGGGSEVQLVESGGGLVQPGGSLRLSCTASGFTISSYHMQWVRQAPGKGLEYIGTISSGGNVYYASSARGRFTISRPSSKNTVDLQMNSLRAEDTAVYYCARDSGYSDPMWGQGTLVTVSS
chain 2: B1 chain 2
notes: penta-miniGNC; D1 αCD3**** (humanized framework 3), D2 αCD19, D3 αEGFR (Fab), D4 α4-1BB, D5 αPD-L1
B3: SI-75X9 (bispecific antibody, human IgG1, kappa, L234A L235A)
chain 1: QVQLQESGGRLVQPGEPLSLTCKTSGIDLSSNAIGWVRQAPGKGLEWIGVIFGSGNTYYASWAKGRFTISRSTSTVYLKMNSLRSEDTAIYYCARGGYSSDIWGQGTLVTVSSASTKGPSVFPLAPSSKSTSGGTAALGCLVKDYFPEPVTVSWNSGALTSGVHTFPAVLQSSGLYSLSSVVTVPSSSLGTQTYICNVNHKPSNTKVDKRVEPKSCDKTHTCPPCPAPEAAGGPSVFLFPPKPKDTLMISRTPEVTCVVVDVSHEDPEVKFNWYVDGVEVHNAKTKPREEQYNSTYRVVSVLTVLHQDWLNGKEYKCAVSNKALPAPIEKTISKAKGQPREPQVYTLPPSRDELTKNQVSLSCAVKGFYPSDIAVEWESNGQPENNYKTTPPVLDSDGSFFLVSKLTVDKSRWQQGNVFSCSVMHEALHNHYTQKSLSLSPG
chain 2: QVQLVQSGGGLVQAGGSLSLSCAFSGRTFSMYTMGWFRQAPGKEREFVAANRGRGLSPDIADSVNGRFTISRDNAKNTLYLQMDSLKPEDTAVYYCAADLQYGSSWPQRSSAEYDYWGQGTTVTVSSGGGGSGGGGSDPQLTQSPSSLSATVGQRVTINCQSSQSVAKNNNLAWFQQKPGKPPKLLIYSASTLAAGVPSRFSGSGSGTQFTLTITRVQSEDFATYYCSARDSGNIQSFGGGTRVEIKRTVAAPSVFIFPPSDEQLKSGTASVVCLLNNFYPREAKVQWKVDNALQSGNSQESVTEQDSKDSTYSLSSTLTLSKADYEKHKVYACEVTHQGLSSPVTKSFNRGECGGDKTHTCPPCPAPEAAGGPSVFLFPPKPKDTLMISRTPEVTCVVVDVSHEDPEVKFNWYVDGVEVHNAKTKPREEQYNSTYRVVSVLTVLHQDWLNGKEYKCAVSNKALPAPIEKTISKAKGQPREPQVYTLPPSRDELTKNQVSLWCLVKGFYPSDIAVEWESNGQPENNYKTTPPVLDSDGSFFLYSKLTVDKSRWQQGNVFSCSVMHEALHNRFTQKSLSLSPG
notes: bi-miniGNC; D2 αHER3 VHH, D3 αCD3* (Fab)
B4: SI-75X15 (bispecific antibody, human IgG1, kappa, L234A L235A)
chain 1: B3 chain 1
chain 2: DPQLTQSPSSLSATVGQRVTINCQSSQSVAKNNNLAWFQQKPGKPPKLLIYSASTLAAGVPSRFSGSGSGTQFTLTITRVQSEDFATYYCSARDSGNIQSFGGGTRVEIKRTVAAPSVFIFPPSDEQLKSGTASVVCLLNNFYPREAKVQWKVDNALQSGNSQESVTEQDSKDSTYSLSSTLTLSKADYEKHKVYACEVTHQGLSSPVTKSFNRGECGGDKTHTCPPCPAPEAAGGPSVFLFPPKPKDTLMISRTPEVTCVVVDVSHEDPEVKFNWYVDGVEVHNAKTKPREEQYNSTYRVVSVLTVLHQDWLNGKEYKCAVSNKALPAPIEKTISKAKGQPREPQVYTLPPSRDELTKNQVSLWCLVKGFYPSDIAVEWESNGQPENNYKTTPPVLDSDGSFFLYSKLTVDKSRWQQGNVFSCSVMHEALHNRFTQKSLSLSPGGGGGSGGGGSQVQLVQSGGGLVQAGGSLSLSCAFSGRTFSMYTMGWFRQAPGKEREFVAANRGRGLSPDIADSVNGRFTISRDNAKNTLYLQMDSLKPEDTAVYYCAADLQYGSSWPQRSSAEYDYWGQGTTVTVSS
notes: bi-miniGNC; D3 αCD3* (Fab), D5 αHER3 VHH

Tests used:
human CD3 [1] = target: T2, human CD3 (human, UniProt P07766 23-126; P04234 22-105); experiment: BLI (Octet), binder on AHC sensor, His-tagged human CD3 (series from 200 nM or single 100 nM), 1:1 fit
T2 construct: also called His-tagged human CD3; human CD3 (Acro CDD-H52W1)

CD19 = target: T1, CD19; experiment: BLI (Octet), binder on AHC sensor; antigen conditions not stated
human 4-1BB = target: T3, human 4-1BB (human, UniProt Q07011 24-186, limits assumed); experiment: as above
T3 construct: Soluble antigen in Octet; construct not described

human PD-L1 = target: T4, human PD-L1 (human, UniProt Q9NZQ7 19-238); experiment: as above
T4 construct: Soluble antigen in Octet; bought; also called human PD-L1 (Acro PD1-H5229)

human CD3 [2] = target: T2, human CD3; experiment: BLI (Octet), binder on AHC sensor, 100 nM human CD3, 1:1 fit
human HER3 = target: T5, human HER3 (human, UniProt P21860 20-643); experiment: BLI (Octet), binder on AHC sensor, 200 nM human HER3, 1:1 fit
T5 construct: Soluble antigen in Octet; bought; also called human HER3 (Acro ER3-H5223)

Binder | Kd (human CD3 [1]) | Kd (CD19) | Kd (human 4-1BB) | Kd (human PD-L1) | Kd (human CD3 [2]) | Kd (human HER3)
B1 | 14.5 nM | 1.35 nM | 7.51 nM | 1 nM | – | –
B2 | 16.7 nM | 3.44 nM | 21.2 nM | 0.7 nM | – | –
B3 | – | – | – | – | 84.2 nM | 3.86 nM
B4 | – | – | – | – | 38.1 nM | 13.7 nM
